Measurements: US20160178646A1, “METHODS FOR DETECTING AMYLOID BETA AMYLOIDOSIS” (Washington University, priority 2011, published 2016)

Assay: Aβ SILK tracer kinetics in CSF with compartmental model of Aβ turnover
Type: in vivo, human
Details: for FTR (fractional turnover rate): mean ± StDev; for FTR faster: cognitively normal, amyloid positive group compared to cognitively normal, amyloid negative group; for kex42 (Aβ42 exchange rate), Mean(95% confidence limits) / FTR, Mean(95% confidence limits): multivariate ANOVA
Description: These human studies took place at the Washington University School of Medicine in St. Louis and were approved by the Washington University Human Studies Committee and the General Clinical Research Center (GCRC) Advisory Committee. All participants completed informed written consent. One hundred and one participants were enrolled for these studies comprising 57 men (aged from 60.4 to 87.7) and 44 women (aged 63.8 to 85.2). Deposition of amyloid plaques was quantified in 62 subjects based on the mean cortical binding potential (MCBP) score of [^11C]PIB-PET.^15 PET PIB scans were performed within 3 years before or after the SILK tracer study date. Cognitive status using the Clinical Dementia Rating sum of boxes score (CDR-SB16) and ApoE genotyping^33 was assessed in all subjects.
The procedure for stable isotope amino acid tracer administration and sample collection was previously described.^12 Briefly, intravenous and intrathecal lumbar catheters were placed between 7:00 AM and 9:00 AM, and the collection of samples was started between 8:00 AM and 10:00 AM. After initial CSF and plasma baseline samples were collected, each participant was infused with a bolus of 3 mg/kg L-[U-^13C6] leucine for 10 minutes, followed by a constant infusion (2 mg/kg/h) for the remainder of the first 9 hours. Blood samples (12 mL) were obtained hourly for the first 16 h and every other hour thereafter. CSF samples (6 mL) were obtained hourly throughout each study. Aliquots of plasma and CSF were frozen at −80° C. immediately in 1 mL polypropylene tubes after being collected for subsequent determination of plasma leucine and CSF Aβ isoform peptide enrichment. The sample collection for one subject was truncated at 4 hours; this subject was excluded from the analysis.
All samples were processed and measured in a blinded fashion with data results and individual analysis completed before unblinding to participant's disease state. The procedure for sample preparation, data acquisition and processing were previously described.^34 Briefly, 1 mL of CSF from each hour of collection and media standards were thawed. Aβ was purified and processed for mass spectrometry by immunoprecipitation with a mid-domain binding antibody HJ5.1 (Aβ amino acids 13 to 28). […] The purified Aβ was then digested with Lys-N (Metalloendopeptidase) and isotopic enrichment of Aβ c-terminal isoform specific peptides (Aβ29-38, Aβ29-40, and Aβ29-42) were measured using a nano-liquid chromatography (NanoLC-2D-Ultra system (Eksigent Technologies, CA USA)) coupled to a TSQ Vantage triple quadrupole mass spectrometer (ThermoScientific, San Jose USA) that was equipped with a column-heating nanospray source (Phoenix S&T, Chester Pa. USA). Xcalibur V2.1 was used to collect and quantify the mass spectrometry data for SILK. […] Samples for 100 subjects (including the prior 24 subjects) were analyzed utilizing the more specific and sensitive method34 in this study.
The time and magnitude of the peak maximum was determined by fitting a 2nd order curve to enrichment vs. time over an 11-h interval centered at the approximate peak maximum. The compartmental model previously developed and applied to Autosomal Dominant AD participants was used to determine model-dependent parameters of Aβ turnover kinetics (FIG. 18).^14 Modeling was performed using the Population Kinetics (PopKinetics, version 1.0.1) companion application to the SAAM II modeling program (version 1.2.1, SAAM Institute, University of Washington, Seattle). PopKinetics performed an iterative two-stage approach to optimize kinetic parameters to individual participants as well as the population as a whole by including a term that represents the population mean and standard deviation for each adjustable parameter such that variability of the kinetic parameters across the population is minimized. […] The model consists of a plasma leucine pool, a subsystem for production of Aβ through APP and C99, turnover of Aβ, and transport of Aβ to CSF.

Substance	correlation between annualized change in fibrillar amyloid by PET PIB and FTR Aβ42 (R) (Amyloid positive and Amyloid negative participants)	exchange rate constant (amyloid negative participants) [pools/h]	FTR (fractional turnover rate) (amyloid negative participants) [pools/h]	exchange rate constant (amyloid positive participants) [pools/h]	FTR (fractional turnover rate) (amyloid positive participants) [pools/h]	FTR (clinically normal amyloid negative group) [pool/h]	FTR (clinically normal amyloid positive group) [pool/h]	FTR faster [%]	deposition rate constant (into amyloid plaques) (difference of FTR, clinically normal amyloid positive minus negative) [pool/h]	increase in exchange of newly synthesized soluble Aβ42 (in amyloidosis)	kex42 (Aβ42 exchange rate), Mean(95% confidence limits) (Amyloid+)	FTR, Mean(95% confidence limits) (Amyloid+ participants, CSF SILK)	kex42 (Aβ42 exchange rate), Mean(95% confidence limits) (Amyloid−)	FTR, Mean(95% confidence limits) (Amyloid− participants, CSF SILK)	FTR, Mean(95% confidence limits) (CDR = 0 Amyloid+)	FTR, Mean(95% confidence limits) (CDR = 0 Amyloid−)	FTR, Mean(95% confidence limits) (CDR > 0 Amyloid+)	FTR, Mean(95% confidence limits) (CDR > 0 Amyloid−)	mean FTR (not significantly different by univariate analysis of amyloid status)
Aβ42: naturally occurring amyloid-beta isoform Aβx-42, where x is any N-terminal cleavage site; endogenous, measured as biomarker	0.56	0.006±0.032	0.094±0.031	0.049±0.054	0.112±0.035	0.091	0.143	57	0.052	ten-fold increase	Amyloid+ 0.059(0.042-0.076)	Amyloid+ 0.124 (0.112-0.135)	Amyloid− 0.006(−0.016-0.029)	Amyloid− 0.101 (0.086-0.115)	–	–	–	–	–
Aβ40: naturally occurring amyloid-beta isoform Aβx-40, where x is any N-terminal cleavage site; endogenous, measured as biomarker	–	–	–	–	–	–	–	17	–	–	–	–	–	–	CDR = 0 Amyloid+ 0.096(0.083-0.109)	CDR = 0 Amyloid− 0.082(0.068-0.096)	CDR > 0 Amyloid+ 0.074(0.067-0.081)	CDR > 0 Amyloid− 0.094(0.083-0.106)	0.082±0.022
